Laboratory results from patent US9657110B2, “Polypeptides and use thereof” (ASTON UNIVERSITY, priority 2011, dated 2017).

B1: D94A, D97A: TG2 fibronectin binding site mutant (protein, UniProt P21980 2-687, looked up, variant D94A D97A)
Protein-glutamine …: AEELVLERCDLELETNGRDHHTADLCREKLVVRRGQPFWLTLHFEGRNYEASVDSLTFSVVTGPAPSQEAGTKARFPLRDAVEEGDWTATVVAQQACTLSLQLTTPANAPIGLYRLSLEASTGYQGSSFVLGHFILLFNAWCPADAVYLDSEEERQEYVLTQQGFIYQGSAKFIKNIPWNFGQFEDGILDICLILLDVNPKFLKNAGRDCSRRSSPVYVGRVVSGMVNCNDDQGVLLGRWDNNYGDGVSPMSWIGSVDILRRWKNHGCQRVKYGQCWVFAAVACTVLRCLGIPTRVVTNYNSAHDQNSNLLIEYFRNEFGEIQGDKSEMIWNFHCWVESWMTRPDLQPGYEGWQALDPTPQEKSEGTYCCGPVPVRAIKEGDLSTKYDAPFVFAEVNADVVDWIQQDDGSVHKSINRSLIVGLKISTKSVGRDEREDITHTYKYPEGSSEEREAFTRANHLNKLAEKEETGMAMRIRVGQSMNMGSDFDVFAHITNNTAEEYVCRLLLCARTVSYNGILGPECGTKYLLNLNLEPFSEKSVPLCILYEKYRDCLTESNLIKVRALLVEPVINSYLLAERDLYLENPEIKIRILGEPKQKRKLVAEVSLQNPLPVALEGCTFTVEGAGLTEEQKTVEIPDPVEAGEEVKVRMDLLPLHMGLHKLVVNFESDKLKAVKGFRNVIIGPA

Columns and labels:
[1] = tested on: Human osteoblasts (HOB) cells; assay: Cell attachment on wells coated with BSA-conjugated extended P1 peptide, BSA or FN; assay type: cell-based; conditions: soluble peptide 100 μg/ml, compared to RAD control peptide
Description: 96-Well ELISA plates were coated with 1 μg/ml of bovine serum albumin (BSA) conjugated peptide (“Extended P1”: […]c; SEQ ID NO:29) conjugated through its C-terminal cysteine via Beta-maleimidopropionic acid N-hydroxysuccinimide ester (MPS). Peptides were dissolved in NaHCO3/Na2CO3 coating buffer, pH 9.6 and plates coated at 4° C. for overnight. Wells coated with 1 μg/ml BSA NaHCO3/Na2CO3 coating buffer or 5 μg/ml FN in 50 mM Tris-HCl, pH 7.4 were used as the control coating materials. Human osteoblasts (HOB) cells in suspension was treated with 100 μg/ml RAD (GRADS; SEQ ID NO:9) or RGD (GRGDTP; SEQ ID NO:8) peptide for 20 min, the cells (3×10^4/well) were seeded into the wells, previously washed with 50 mM Tris-HCl, pH 7.4, and allowed to settle for 30 min. Attached cells were washed once with PBS, pH 7.4, and then fixed with 3.7% paraformaldehyde, further permeabilized with 0.1% (v/v) Triton® X-100 detergent in PBS, and co-stained with May-Grunwald and Giemsa stains as described previously.

FN = assay: Measurement of TG2 binding to FN by ELISA (cell lysates); conditions: lysates of transfected HEK293T/17 cells, normalised for expression
Description: Microtitre 96 well plates were coated with 50 μl of 5 μg/ml FN in 50 mM Tris-HCl, pH 7.4 at 4° C. overnight. The wells were blocked for 30 min with 5% (w/v) fat-free milk in PBS, pH 7.4 and washed twice with PBS-TWEEN® detergent, pH 7.4 and once with PBS, pH 7.4. Aliquots (100 μl) of cell lysate containing 60 μg protein were added to the FN-coated wells and incubated for 1 h at 37° C. After washing three times with PBS, pH 7.4, wells were blocked with 100 μl 3% BSA in PBS, pH 7.4 (blocking buffer) for 30 min at room temperature and then incubated with 100 μl Cub7402 (1:1000 dilution in blocking buffer) for 2 h at 37° C. After washing three times with PBS, pH 7.4, the wells were incubated with 100 μl rabbit anti-mouse IgG-HRP conjugated antibody (1:1000 dilution in blocking buffer) for 2 h at 37° C. HRP was detected by the addition of 100 μl of o-phenylenediamine substrate solution (SigmaFast […]™ OPD, Sigma). Colour development was terminated by the addition of 50 μl of 2.5M H2SO4 and absorbance at 490 nm was measured. The amount of TG2/mutant TG2 binding to the FN was normalised between samples by using the densitometry values from Western blotting for the TG protein found in each of the cell lysates used. α-Tubulin was used to normalise for any differences in protein loading.

[2] = Binding of TG2 to heparin SEPHAROSE, elution with NaCl gradient; conditions: compared with wt TG2
Description: HEK cells, transiently transfected with wild-type and mutant TG2 were washed twice with ice cold PBS, pH 7.4 and lysed by the addition of 150 μl of 20 mM Tris-HCl pH 7.4, 10 mM EGTA, 2 mM EDTA, 1 mM NaF and 1 mM Na3VO4. After clarification by centrifugation, lysates were mixed with 450 μl of 50 mM Tris-HCl, 1 mM EDTA, 1 mM DTT, pH 7.5 and applied to a 5 ml Heparin SEPHAROSE® column (GE Healthcare) equilibrated in 50 mM Tris-HCl, 1 mM EDTA, 1 mM DTT pH 7.5 (buffer) at a flow rate of 1 ml/min. For the analysis of GTP-bound TG2 (closed conformation), lysates were pre-incubated for 1 h at room temperature with 0.5 mM GTP in 50 mM Tris-HCl, 2 mM MgCl2, 1 mM EDTA, 1 mM DTT pH 7.5. For the analysis of inhibitor-reacted TG2 (open conformation), lysates were incubated with 0.5 mM of irreversible inhibitor R281 (Griffin et al., 2008) and 10 mM CaCl2. The column was washed with 25 ml of buffer and protein was eluted with a linear gradient of increasing NaCl concentration (0-1M) in buffer. Fractions were assayed for TG2 activity and analysed for the presence of TG2 antigen by SDS-PAGE and Western blotting using CUB7402.

NIH 3T3 cells = assay: Detection of TG2 at cell surface (biotinylation), in ECM and in culture medium of transfected cells; assay type: cell-based, mouse; conditions: transfected NIH 3T3 cells, biotinylation and Western blot, vs wild-type TG2
Description: Cell surface proteins were labelled by biotinylation as described previously (Wang et al., 2010). Briefly, cell monolayers were rinsed three times with ice-cold PBS pH 8.0 and labelled with 0.8 mM sulfo-NHS-LC-biotin dissolved in PBS pH 8.0 at 4° C. for 20 min. Cells were then washed with 50 mM Tris-HCl, pH 8.0 and lysed with 1% SDS at 4° C. in PBS pH8.0. Following denaturation at 95° C., cell lysates were clarified by centrifugation at 14,000×g at 20° C. and 200 μg of protein was incubated overnight at 4° C. with NEUTRAVIDIN® avidin protein-Agarose resin. After washing three times with PBS pH 8.0, the biotin-labelled proteins were dissolved in 2× Laemmli buffer separated by SDS-PAGE and subjected to Western blotting.
Following transfection, cells were incubated for 24 h with 10% (v/v) serum, which was replaced with 1% (v/v) serum and TG2 expression was allowed to proceed for a further 48 h. Proteins from 1 ml of medium were precipitated by the addition of ice cold 20% (w/v) trichloroacetic acid (TCA) to a final concentration of 10% (w/v) Pelleted proteins were then washed once with ice cold 10% (w/v) TCA, ethanol-acetone (1:1) and acetone, and resuspended in 2× Laemmli buffer (Sigma-Aldrich, UK) and analysed by SDS-PAGE and Western blot analysis using monoclonal anti-TG2 antibody (Cub7402). The remaining cells were detached with 2 mM EDTA in PBS, pH 7.4 and the ECM was extracted with 0.1% (w/v) deoxycholate in PBS, pH 7.4. The residual deoxycholate-insoluble ECM proteins were dissolved in 2× Laemmli buffer for further analysis by SDS-PAGE and Western blotting using Cub7402.

Row | Molecule | block of cell attachment on the FN matrix [1] | binding to FN compared to wild type TG2 (FN) | binding to heparin SEPHAROSE (in words) [2] | presence on the cell surface (NIH 3T3 cells)
1 | GRGDTP [RGD peptide, synthetic RGD peptide from Calbiochem] | around 50% |  |  | 
2 | B1 |  | approximately 50% | comparable elution profile to the wt enzyme | greater levels
